Source: US20250383350, “ANALYTE DETECTION USING APTAMERS” (The Regents of the University of Michigan, published 2025)

Assays:
[1] = target: T1, IL-8 (CXCL8), captured by monoclonal antibody (Homo sapiens, UniProt P10145 P10145:28-99); test: single-molecule TIRF; antibody-mediated capture; 25% horse serum, 21 C; kon 4.48e6, koff 1.17; settings: tags: Bio-Rad BR-1098; captured by biotinylated anti-IL-8 EPR19358-108; label: 5'-Cy5
Experimental: (§1) SiMREPS assays of recombinant antigens-All sample handling was performed in GeneMate low-adhesion 1.7-mL microcentrifuge tubes, and dilutions were performed in 25% horse serum, 0.75×PBS, pH 7.4, and 7.5 mg/mL BSA. The slide surface was washed with 100 μL of T50 buffer (10 mM Tris-HCl, 50 mM NaCl, 1 mm EDTA, pH 8.0) for 10 minutes followed by the addition of 40 μL 1 mg/mL streptavidin. After 10 minutes, excess streptavidin was removed, and the sample chamber washed three times with 100 μL of 1×PBS. Next, the coverslip was coated with the biotinylated capture antibody by adding 40 μL of a solution containing 10 nM of biotinylated capture antibody in 1×PBS buffer and incubating for 30 minutes. […]
(§2) To systematically assess the effect of aptamer size on the kinetics of binding to the small (8.4 kDa) protein IL-8, two different antigen capture strategies were used: direct capture, in which C-terminally biotin labelled IL-8 was immobilized directly on the surface by the biotin-streptavidin interaction; and antibody mediated capture, in which non-biotinylated IL-8 was captured on the surface by a surface-immobilized biotinylated monoclonal antibody (FIG. 7A). […] To gain more quantitative insight, association and dissociation rate constants were calculated from the dwell time distributions in the aptamer-unbound and -bound states, respectively, and are shown in Table 2.

[2] = target: T2, IL-8 (CXCL8), C-terminally biotinylated, directly surface-captured (Homo sapiens, UniProt P10145 P10145:28-99); test: single-molecule TIRF; direct IL-8 capture; 25% horse serum, 21 C; kon 5.68e6, koff 0.50; settings: tags: C-terminal biotin; Chemotactics B-CXCL8-2 ug; immobilized on streptavidin; label: 5'-Cy5
Source text: as §2

[3] = target: T3, VEGF165 (Homo sapiens, UniProt P15692-4 P15692-4:27-191); test: single-molecule TIRF; settings: tags: Abcam ab9571; captured by biotinylated anti-VEGF165 IgG (Bio-Rad); chain copies: 2; label: 3'-Cy5
[4] = target: T3, VEGF165; test: single-molecule TIRF; same buffer as t22 G->A; settings: tags: Abcam ab9571; captured by biotinylated anti-VEGF165 IgG (Bio-Rad); chain copies: 2; label: 3'-Cy5
[5] = target: T1, IL-8 (CXCL8), captured by monoclonal …; test: single-molecule TIRF; antibody-mediated capture; 25% horse serum, 21 C; kon 0.99e6, koff 2.50; settings: tags: Bio-Rad BR-1098; captured by biotinylated anti-IL-8 EPR19358-108; label: 3'-Cy5
Experimental: as §1, §2

[6] = target: T2, IL-8 (CXCL8), C-terminally …; test: single-molecule TIRF; direct IL-8 capture; 25% horse serum, 21 C; kon 2.08e6, koff 0.55; settings: tags: C-terminal biotin; Chemotactics B-CXCL8-2 ug; immobilized on streptavidin; label: 3'-Cy5
Source text: as §2

[7] = target: T1, IL-8 (CXCL8), captured by monoclonal …; test: single-molecule TIRF; antibody-mediated capture; 25% horse serum, 21 C; kon 2.29e6, koff 2.32; settings: tags: Bio-Rad BR-1098; captured by biotinylated anti-IL-8 EPR19358-108; label: 3'-Cy5
Experimental: as §1, §2

[8] = target: T2, IL-8 (CXCL8), C-terminally …; test: single-molecule TIRF; direct IL-8 capture; 25% horse serum, 21 C; kon 3.21e6, koff 0.54; settings: tags: C-terminal biotin; Chemotactics B-CXCL8-2 ug; immobilized on streptavidin; label: 3'-Cy5
Source text: as §2

T2 sequence (P10145 28-99, one chain of several): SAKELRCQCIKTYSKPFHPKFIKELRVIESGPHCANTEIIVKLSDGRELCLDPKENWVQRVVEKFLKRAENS
T1 sequence (P10145 28-99, one chain of several): as above
T3 sequence (P15692 other isoform, or with tags, fused parts or gaps): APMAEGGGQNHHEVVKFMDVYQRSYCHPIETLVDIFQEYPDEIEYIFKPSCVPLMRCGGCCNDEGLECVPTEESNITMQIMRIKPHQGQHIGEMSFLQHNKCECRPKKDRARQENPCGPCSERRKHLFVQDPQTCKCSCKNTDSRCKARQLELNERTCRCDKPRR

B1: 8A-30 (SEQ ID NO 3) (ssRNA)
RNA: GGGUUAUCAUUCCAUUUAGUGUUAUGAUAA
modifications: 2'-F at all pyrimidines
- Kd [1]: 261 nM
- Kd [2]: 88 nM

B2: t22 (SEQ ID NO 4) (ssRNA)
RNA: GCGGUAGGAAGAAUUGGAAGCGC
modifications: 2'-F at all pyrimidines
- kon [3]: 220000 M⁻¹ s⁻¹
- koff [4]: 0.02 s⁻¹

B3: 8A-44 (SEQ ID NO 1) (ssRNA)
RNA: GGGGGCUUAUCAUUCCAUUUAGUGUUAUGAUAACCUCUCCCAUA
modifications: 2'-F at C and U (printed i2FC/i2FU up to position 36; text states all pyrimidines)
- Kd [5]: 2520 nM
- Kd [6]: 264 nM

B4: 8A-35 (SEQ ID NO 2) (ssRNA)
RNA: GGGGGCUUAUCAUUCCAUUUAGUGUUAUGAUAACC
modifications: 2'-F at all pyrimidines
- Kd [7]: 1010 nM
- Kd [8]: 168 nM
